Test results published in patent US20090264352A1 (published 2009).

Molecular target: T1, GLP-1 receptor (RINm5F cell membranes) (UniProt P32301 22-463, limits assumed)
T1 construct: whole, on cells; The receptor source is homogenized cell membranes, not intact cells
T1 sequence (looked up): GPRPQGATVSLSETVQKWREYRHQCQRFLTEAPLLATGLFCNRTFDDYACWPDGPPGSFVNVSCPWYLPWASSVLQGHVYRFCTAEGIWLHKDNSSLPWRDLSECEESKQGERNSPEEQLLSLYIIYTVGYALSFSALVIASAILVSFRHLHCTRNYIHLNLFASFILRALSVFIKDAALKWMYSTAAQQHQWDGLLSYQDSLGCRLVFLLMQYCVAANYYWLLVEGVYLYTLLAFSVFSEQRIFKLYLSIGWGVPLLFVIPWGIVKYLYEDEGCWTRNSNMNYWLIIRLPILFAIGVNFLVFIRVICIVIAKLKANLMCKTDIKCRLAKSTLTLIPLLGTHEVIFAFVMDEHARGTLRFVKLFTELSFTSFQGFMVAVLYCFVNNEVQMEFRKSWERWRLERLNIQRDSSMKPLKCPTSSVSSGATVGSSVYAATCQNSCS
Assay: displacement of [125I]GLP-1 from RINm5F cell membranes, filtration and scintillation counting
Experimental: Reaction mixtures are filtered through glass filter pads presoaked with 0.3% PEI solution and rinsed with ice-cold phosphate buffered saline. Bound counts are determined using a scintillation counter. Binding affinities are calculated using GraphPad Prism [sequence] PRISM® software (GraphPad Software, Inc., San Diego, Calif.).

B1: GLP-1 (9-36) (peptide, UniProt P01275 100-127, looked up)
peptide: EGTFTSDVSSYLEGQAAKEFIAWLVKGR
notes: range 100-127; Test compound in the displacement assay
IC50: 0.065 µM
